Assay results reported in patent publication US8604172B2, “Humanized antibody compositions and methods for binding lysophosphatidic acid” (Lpath, Inc., priority 2009, dated 2013).
Marks after values point to notes of the source that are not given here.

Key:
SKOV3 cells = assay: Taxol-induced apoptosis / caspase activity in SKOV3 cells; type: cell-based, human
Method: The ability of LPA to protect ovarian tumor cells against apoptosis when exposed to clinically-relevant levels of the chemotherapeutic agent, paclitaxel (Taxol) was investigated. […] LPA protected SKOV3 cells from Taxol-induced apoptosis. Apoptosis was assayed by measurement of the caspase activity as recommended by the manufacturer (Promega). As anticipated, LPA protected most of the cancer cell lines tested from taxol-induced cell death. […] Moreover, the anti-LPA antibody was able to remove the protection provided by serum. Serum is estimated to contain about 5-20 uM LPA. […] Taxol-induced caspase activation was enhanced by the addition of LT3000 to the culture medium.

[1] = Surface plasmon resonance, 12:0 LPA on GLC sensor chip; type: binding
Method: (§1) All binding data were collected on a ProteOn optical biosensor (BioRad, Hercules Calif.). 12:0 LPA-thiol and 18:0 LPA-thiol were coupled to a maleimide modified GLC sensor chip (Cat. No 176-5011). First, the GLC chip was activated with an equal mixture of sulfo-NHS/EDC for seven minutes followed by a 7 minute blocking step with ethyldiamine. Next sulfo-MBS (Pierce Co., cat #22312) was passed over the surfaces at a concentration of 0.5 mM in HBS running buffer (10 mM HEPES, 150 mM NaCl, 0.005% tween-20, pH 7.4). LPA-thiol was diluted into the HBS running buffer to a concentration of 10, 1 and 0.1 uM and injected for 7 minutes producing 3 different density LPA surfaces (˜100, ˜300 and ˜1400 RU). Next, binding data for the humanized antibodies was collected using a 3-fold dilution series starting with 25 nM as the highest concentration (original stocks were each diluted 1 to 100). Surfaces were regenerated with a 10 second pulse of 100 mM HCl. All data were collected at 25° C. Controls were processed using a reference surface as well as blank injections. […] In order to extract estimates of the binding constants, data from the varying antibody concentrations were globally fit using 1-site and 2-site models. This produced estimates of the affinity for the bivalent (site 1) and monovalent site (site 2).

[2] = Competition ELISA (18:1 LPA coat), competitor 16:0 LPA; type: binding; conditions: maximum inhibition
Method: (§2) Many isoforms of LPA have been identified to be biologically active and it is preferable that the mAb recognize all of them to some extent to be of therapeutic relevance. The specificity of the anti-LPA mAbs was evaluated utilizing a competition assay in which the competitor lipid was added to the antibody-immobilized lipid mixture.
(§3) Competition ELISA assays were performed with the anti-LPA mAbs to assess their specificity. 18:1 LPA was captured on ELISA plates. Each competitor lipid (up to 10 uM) was serially diluted in BSA (1 mg/ml)-PBS and then incubated with the mAbs (3 nM). Mixtures were then transferred to LPA coated wells and the amount of bound antibody was measured with a secondary antibody. Data are normalized to maximum signal (A450) and are expressed as percent inhibition. Assays were performed in triplicate. IC50: Half maximum inhibition concentration; MI: Maximum inhibition (% of binding in the absence of inhibitor); - - -: not estimated because of weak inhibition. A high inhibition result indicates recognition of the competitor lipid by the antibody.

[3] = Surface plasmon resonance, 18:0 LPA on GLC sensor chip; type: binding
Method: as §1

[4] = Direct binding ELISA of anti-LPA mAbs to 12:0 LPA
Method: The binding of 6 anti-LPA mAbs (B3, B7, B58, A63, B3A6, D22) to 12:0 and 18:1 LPA (0.1 uM) was measured by ELISA. EC50 values were calculated from titration curves using 6 increasing concentrations of purified mAbs (0 to 0.4 ug/ml). EC50 represents the effective antibody concentration with 50% of the maximum binding. Max denotes the maximal binding (expressed as OD450).

[5] = test system: selected human cancer cell lines; assay: LPA-induced cancer cell proliferation; type: cell-based; conditions: addition of anti-LPA mAb
Method: LPA is a potent growth factor supporting cell survival and proliferation by stimulation of Gi, Gq and G12/13 via GPCR-receptors and activation of downstream signaling events. Cell lines were tested for their proliferative response to LPA ([…]). Cell proliferation was assayed by using the cell proliferation assay kit from Chemicon (Temecula Calif.) (Panc-1) and the Cell-Blue titer from Pierce (Caki-1). Each data point is the mean of three independent experiments. […] Even though tumor-derived cells normally have high basal levels of proliferation, LPA appears to further augment proliferation in most tumor cell lines. Anti-LPA mAbs (B7 and B58) were assessed for the ability to inhibit LPA-induced proliferation in selected human cancer cell lines.

[6] = Competition ELISA (18:1 LPA coat), competitor 20:4 LPA; type: binding; conditions: maximum inhibition
Method: as §2, §3

[7] = Pharmacokinetics of Lpathomab in mice; type: in vivo
Method: Preliminary PK studies were conducted with Lpathomab. For IV dosed groups, mice were injected with a single 30 mg/kg dose and sacrificed at time points up to 15 days. Antibody was also given via i.p. administration and animals were sacrificed during the first 24 hrs to compare levels of mAb in the blood over this period of time for different routes of delivery. Pharmacokinetic parameters were assessed by WinNonlin. Three mice were sacrificed at each time point and plasma samples were collected and analyzed for mAb levels by ELISA.

[8] = Competition ELISA (18:1 LPA coat), competitor 18:1 LPA; type: binding; conditions: maximum inhibition
Method: as §2, §3

[9] = Competition ELISA (18:1 LPA coat), competitor 14:0 LPA; conditions: maximum inhibition (% of binding in the absence of inhibitor)
Method: as §2, §3

SKOV3 cell invasion = assay: SKOV3 invasion assay; type: cell-based, human; conditions: Lpathomab (15 mg/mL); 2 μM 14:0 LPA; n = 2
[10] = BIAcore 3000 kinetics, LPA immobilized on sensor chip; type: binding
Method: The kinetics parameters ka (association rate constant), kd (disassociation rate constant) and KD ([…] equilibrium constant) were determined for the 6 lead candidates using the BIAcore 3000 Biosensor machine. In this study, LPA was immobilized on the sensor surface and the anti-LPA mAbs were flowed in solution across the surface.
LPA was immobilized to the sensor chip at densities ranging 150 resonance units. Dilutions of each mAb were passed over the immobilized LPA and kinetic constants were obtained by nonlinear regression of association/dissociation phases. Errors are given as the standard deviation using at least three determinations in duplicate runs. Apparent affinities were determined by […].
ka=Association rate constant in M^−1s^−1kd=Dissociation rate constant in s^−1

- Kd ([1]; first value (site 1, bivalent), read-out: KD (C12)): 27 pM
- Kd ([1]; value in parentheses (site 2, monovalent), read-out: KD (C12), value in parentheses): 7 pM
- Kd ([3]; first value (site 1, bivalent), read-out: KD (C18)): 11 pM
- Kd ([3]; value in parentheses (site 2, monovalent), read-out: KD (C18), value in parentheses): 5 pM
- EC50 ([4]; 12:0 LPA 0.1 uM, mAb 0 to 0.4 ug/ml): 0.413 nM
- Max (OD450), 12:0 LPA ([4]; maximal binding): 1.395 OD450
- Kd ([10]; apparent affinity): 1.6 ± 0.1 pM
- kd ([10]; dissociation rate constant): 1e-06 s⁻¹
B1: LT3000: Murine anti-LPA monoclonal antibody clone B7, IgG1k, renamed Lpathomab, also known as LT3000; hybridoma 504B7.1, ATCC PTA-8420 (antibody, V domains shown)
VH: QVQLQQSGAELVRPGTSVKVSCKASGYGFINYLIEWIKQRPGQGLEWIGLINPGSDYTNYNENFKGKATLTADKSSSTAYMHLSSLTSEDSAVYFCARRFGYYGSGNYFDYWGQGTTLTVSS
VL: DVVMTQTPLSLPVSLGDQASISCTSGQSLVHINGNTYLHWYLQKPGQSPKLLIYKVSNLFSGVPDRFSGSGSGTDFTLKISRVEAEDLGVYFCSQSTHFPFTFGTGTKLEIK
- LPA protection from death induced by chemotherapeutic agent (Taxol) (SKOV3 cells; LPA responsive cells, 24 h): blocked the ability of LPA to protect cells from death
- Apoptosis, % Induction (over LPA + TAXOL taken as 100) (SKOV3 cells; Lpathomab 150 μg/mL, 1 μM Taxol, 1 μM 18:1 LPA, n = 1): 79%
- Taxol-induced caspase activation (SKOV3 cells; SKOV3, serum-containing culture medium): enhanced
- MI, 16:0 LPA [2]: 62.9%
- LPA-induced increase in proliferation [5]: mitigated
- MI, 20:4 LPA [6]: 67%
- time until fully distributed to the blood ([7]; i.p. administration): 6 to 12 h
- half-life ([7]; i.v. administration, listed as murine antibody): ~96 h
- MI, 18:1 LPA [8]: 100%
- MI, 14:0 LPA [9]: 61.3%
- Invasion, % Inhibition (over LPA taken as 100) (SKOV3 cell invasion): 95* %
- ka (M^−1 s^−1) ([10]; association rate constant, ± standard deviation): 6.2 ± 0.1 × 10^5 M^−1 s^−1
